B1: H1H6959N2-DM1 (conjugate)
VH: EVQLVESGGGLVQPGRSLRLSCAASGFTFDDYAMHWVRQAPGKGLEWVSGISWHSGIIGYADSVKGRFTISRDNAKNSLYLQMNSLRTEDAALYYCAKIGSYFYFDSWGQGTLVTVSS
VL: EIVLTQSPGTLSLSPGERATLSCRASQSVSSNYLAWYQQKPGQAPRLLIYGASSRATGIPDRFSGSGSGTDFTLTISRLEPEDFAVYYCQQFGSSGYTFGQGTNLEIK
B2: H1H6960N-DM1 (conjugate)
VH: EVQLVESGGGLVKPGGSLRLSCAASGITFSSYSMNWVRQAPGKGLEWVSSISTRSSLIHYADSVKGRFTISRDNAKNSLYLQMNSLRDEDTAVYYCARWDAAAAFDYWGQGTLVIVSS
VL: DIQLTQSPSFLSASVGDRVTITCWASQGISSYLAWYQQKPGKAPKLLIYVASTLQSGVPSRFSGSGSGTEFTLTISSLQPEDFATYFCQQLNSYPLTFGGGTKVEIK

Legend:
[1] = Conjugate characterization: protein and linker/payload concentrations, payload loading (UV, MALDI-TOF, SEC-HPLC, RP-HPLC); type: physicochemical; conditions: Anti-PRLR-SMCC-DM1 conjugates; Table 9
Description: Selected anti-PRLR antibodies were conjugated to the maytansinoid DM1 through an SMCC linker using methods similar to those set forth in U.S. Pat. No. 5,208,020 and US Patent Application Publication No. 2010/0129314, the disclosures of which are incorporated by reference herein in their entireties. The conjugates were purified by size exclusion chromatography and sterile filtered. All starting materials and solvents were purchased commercially and used without purification, unless otherwise noted.
Protein and linker/payload concentrations were determined by UV spectral analysis and MALDI-TOF mass spectrometry. Size-exclusion HPLC established that all conjugates used were >95% monomeric, and RP-HPLC established that there was <0.5% unconjugated linker payload. Yields are reported in Table 8 and 9 based on protein. All conjugated antibodies were analyzed by UV for linker payload loading values according to Hamblett et al, 2004, Clinical Cancer Research 10(20):7063-7070, and by mass difference, native versus conjugated.

[2] = system: HEK293/hPRLR (293/hPRLR) cells; assay: Cell viability (cell kill) assay; type: cell-based, human; conditions: 293/PRLR, Table 11, 3 days; for IC50: read-out: IC50
Description: (§1) PRLR-overexpressing cells, including HEK293, PC3, MCF7 and NCI-N87, were generated to assess the ability of anti-PRLR conjugated antibodies to reduce cell viability. For comparative purposes, PC3 and T47D cells with overexpressed ErbB2 were also generated, as well as an MCF7 cell line over-expressing both hPRLR and hErbB2. Briefly, Lipofectamine® 2000-mediated transfection methodology was utilized to generate HEK293 cells expressing human PRLR (HEK293/hPRLR) or human ErbB2 (HEK293/hErbB2). Lipofectamine LTX with Plus Reagent was used to generate PC3 cells expressing human PRLR (PC3/hPRLR) or human ErbB2 (PC3/hErbB2). Lentiviral-mediated transduction was utilized to generate MCF7 cells expressing human PRLR (MCF7/hPRLR), NCI-N87 cells expressing human PRLR (NCI-N87/hPRLR), T47D cells over-expressing human ErbB2 (T47D/hErbB2), and MCF7 cells expressing both human PRLR and human ErbB2 (MCF7/hPRLR/hErbB2). All lines were selected for at least two weeks in complete growth media plus appropriate selection reagents. Stably expressing populations were enriched for PRLR expression via FACS using the anti PRLR antibody Control I.
(§2) Next, the ability of anti-PRLR-DM1 antibody-drug conjugates (i.e., anti-PRLR antibodies conjugated to DM1 via a non-cleavable linker [SMCC]) to reduce cell viability was determined using in vitro cell based assays. Cells were seeded in PDL-coated 96 well plates at 1500 to 10000 cells per well in complete growth media and allowed to grow overnight. For cell viability curves, ADCs or free DM1 (as the methyl disulfide derivative DM1-SMe) were added to the cells at final concentrations ranging from 500 nM to 5 pM and incubated for 3 days. The 293, PC3 and T47D cells were incubated with CCK8 (Dojindo, Rockville, Md.) for the final 1-3 hours and the absorbance at 450 nm (OD450) was determined on a Flexstation3 (Molecular Devices, Sunnyvale, Calif.). MCF7 cells were treated with Hoechst 33342 nuclear stain while being fixed with 4% formaldehyde. Images were acquired on the ImageXpress micro XL (Molecular Devices, Sunnyvale, Calif.) and nuclear counts were determined via Columbus image analysis software (Perkin Elmer, Shelton, Conn.). Background OD450 values (PC3, 293, and T47D) or nuclear counts (MCF7) from digitonin (40 nM) treated cells was subtracted from all wells and viability was expressed as a percentage of the untreated controls. IC50 values were determined from a four-parameter logistic equation over a 10-point response curve (GraphPad Prism).

PC3/hPRLR cells = assay: Cell viability (cell kill) assay; type: cell-based, human; conditions: PC3/PRLR; Table 11; 3 days
Description: as §1, §2
(§3) Finally, the potency of anti-PRLR antibodies conjugated to DM1 via the non-cleavable linker SMCC was compared to the cell killing potency of anti-PRLR antibodies conjugated to MMAE via the cleavable linker: mc-vc-PAB (available from Concortis, San Diego, Calif.). Cells used in this experiment were PC3, PC3/hPRLR, MCF7/ATCC and MCF7/PRLR.

MCF7 (MCF7/ATCC) cells = assay: Cell viability (cell kill) assay, nuclear counts; type: cell-based; conditions: MCF7; Table 12; 3 days
Description: as §1, §2, §3
(§4) Additional toxins (DM4, MeNHC3-May, and MMD) conjugated to anti-PRLR antibodies were also tested in T47D and MCF7/hPRLR cell lines, and results are summarized in Tables 19 (293 and T47D cell killing) and 20 (MCF7/ATCC and MCF7/PRLR cell killing). (ND=not detected).

[3] = system: MCF7/hPRLR (MCF7/PRLR) cells; assay: Cell viability (cell kill) assay, nuclear counts; type: cell-based, human; conditions: Table 12, 3 days
Description: as §1, §2, §3, §4

HEK293 (293) cells = assay: Cell viability (cell kill) assay; type: cell-based; conditions: 293; Table 11; 3 days
Description: as §1, §2

T47D cells = assay: Cell viability (cell kill) assay; type: cell-based; conditions: T47D, Table 12, 3 days; for IC50: read-out: IC50
Protocol: as §2
Additionally, the impact of the PRLR ligand, PRL, on PRLR-SMCC-DM1 cell kill in T47D cells was assessed. T47D cells were incubated simultaneously with PRL (15 nM) and either a non-blocking anti PRLR antibody (H1H6782P) or a receptor blocking antibody (H1H6958N2).
as §4

Molecule	Payload:Antibody Molar Ratio (MS) [1]	Payload:Antibody Molar Ratio (UV) [1]	% Kill [2] [%]	IC50 [2] [nM]	% Kill (PC3/hPRLR cells) [%]	IC50 (PC3/hPRLR cells) [nM]	% Kill (MCF7 (MCF7/ATCC) cells) [%]	IC50 (MCF7 (MCF7/ATCC) cells) [nM]	% Kill [3] [%]	IC50 [3] [nM]	% Kill (HEK293 (293) cells) [%]	% Kill (T47D cells) [%]	IC50 (T47D cells) [nM]
B1	3.3	3.8	95	4.82	82	11.6	82	100	80	0.47	100	71	48.9
B2	3.0	3.6	95	0.38	82	1.13	77	100	78	0.29	100	71	5.1

Reference: patent publication US9688764B2, “Methods of treating breast cancer by administering anti-human prolactin receptor (PRLR) antibodies” (REGENERON PHARMACEUTICALS, INC., priority 2013, dated 2017)
